Assay results from US10472401B2, “Peptides and combination of peptides for use in immunotherapy against ovarian cancer and other cancers” (immatics biotechnologies GmbH, priority 2015, dated 2019).

Target: HLA-A*02:01 (Homo sapiens, UniProt P04439, D140Y/D185E/D98H/E176V/E277Q/G131W/G231S/I119V/I121R/I166T/I218V/L300P/L318F/N151K/N90K/P208A/P217A/Q86G/Q94H/R138H/R169H/T345S)
Assay: MHC binding assay (UV-ligand exchange, ELISA of stabilized MHC complexes)
Settings: MHC class I binding score; binding to HLA-A*02:01 ranged by peptide exchange yield (UV-ligand exchange, ELISA)
Summary of the method: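 Binding scored as exchange yield, detected via β2m of stabilized complexes in an HRP/TMB ELISA read at 450 nm after streptavidin capture of 100-fold diluted monomers for 1 h at 37 °C. Complexes came from UV irradiation cleaving a photolabile peptide, exchanged for the candidate.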

Substance | Peptide exchange
541 (SMLEPVPEL; listed as Homo sapiens) [compound 541] | ″+++″ (≥50% = +++)
542 (RVWDISTVSSV; listed as Homo sapiens) [compound 542] | ″+++″ (≥50% = +++)
543 (GLLPTPITQQASL; listed as Homo sapiens) [compound 543] | ″+++″ (≥50% = +++)
544 (LLWDVPAPSL; listed as Homo sapiens) [compound 544] | ″+++″ (≥50% = +++)
545 (LLADLLHNV; listed as Homo sapiens) [compound 545] | ″+++″ (≥50% = +++)
546 (VMIAGKVAVV; listed as Homo sapiens) [compound 546] | ″+++″ (≥50% = +++)
547 (TLDITPHTV; listed as Homo sapiens) [compound 547] | ″+++″ (≥50% = +++)
548 (ALWENPESGEL; listed as Homo sapiens) [compound 548] | ″++″ (≥20% = ++)
549 (AMLENASDIKL; listed as Homo sapiens) [compound 549] | ″+++″ (≥50% = +++)
550 (FLYDEIEAEVNL; listed as Homo sapiens) [compound 550] | ″+++″ (≥50% = +++)
551 (KLYESLLPFA; listed as Homo sapiens) [compound 551] | ″+++″ (≥50% = +++)
552 (GLLDLPFRVGV; listed as Homo sapiens) [compound 552] | ″++++″ (≥75% = ++++)
553 (SLLNQDLHWSL; listed as Homo sapiens) [compound 553] | ″++++″ (≥75% = ++++)
554 (LLMPSSEDLLL; listed as Homo sapiens) [compound 554] | ″+++″ (≥50% = +++)
555 (YVLEGLKSV; listed as Homo sapiens) [compound 555] | ″+++″ (≥50% = +++)
556 (FLTDLEDLTL; listed as Homo sapiens) [compound 556] | ″+++″ (≥50% = +++)
557 (KLYDDMIRL; listed as Homo sapiens) [compound 557] | ″+++″ (≥50% = +++)
558 (GLLENIPRV; listed as Homo sapiens) [compound 558] | ″+++″ (≥50% = +++)
559 (VTVPPGPSL; listed as Homo sapiens) [compound 559] | ″++″ (≥20% = ++)

Substance | Peptide exchange
560 (ALWDIETGQQTTT; listed as Homo sapiens) [compound 560] | ″+++″ (≥50% = +++)
561 (YLQLTQSEL; listed as Homo sapiens) [compound 561] | ″+++″ (≥50% = +++)
562 (YLEELPEKLKL; listed as Homo sapiens) [compound 562] | ″+++″ (≥50% = +++)
563 (WLLPYNGVTV; listed as Homo sapiens) [compound 563] | ″+++″ (≥50% = +++)
564 (TVTNAVVTV; listed as Homo sapiens) [compound 564] | ″+++″ (≥50% = +++)
565 (ALQETPTSV; listed as Homo sapiens) [compound 565] | ″++″ (≥20% = ++)
566 (VIADGGIQNV; listed as Homo sapiens) [compound 566] | ″++″ (≥20% = ++)
567 (SLLPLDDIVRV; listed as Homo sapiens) [compound 567] | ″+++″ (≥50% = +++)
568 (TLYDIAHTPGV; listed as Homo sapiens) [compound 568] | ″++++″ (≥75% = ++++)
569 (KLVDRTWTL; listed as Homo sapiens) [compound 569] | ″+++″ (≥50% = +++)
570 (ALANQIPTV; listed as Homo sapiens) [compound 570] | ″++″ (≥20% = ++)
571 (LLLTTIPQI; listed as Homo sapiens) [compound 571] | ″+++″ (≥50% = +++)
572 (ALADLIEKELSV; listed as Homo sapiens) [compound 572] | ″+++″ (≥50% = +++)
573 (ILVANAIVGV; listed as Homo sapiens) [compound 573] | ″+++″ (≥50% = +++)
574 (YLLQEPPRTV; listed as Homo sapiens) [compound 574] | ″++″ (≥20% = ++)
575 (YLISQVEGHQV; listed as Homo sapiens) [compound 575] | ″+++″ (≥50% = +++)
576 (ILLNNSGQIKL; listed as Homo sapiens) [compound 576] | ″++++″ (≥75% = ++++)
577 (VMFEDGVLMRL; listed as Homo sapiens) [compound 577] | ″+++″ (≥50% = +++)

Continued, values first:

Peptide exchange | Substance
″+++″ (≥50% = +++) | 578 (FLDPGGPMMKL; listed as Homo sapiens) [compound 578]
″++″ (≥20% = ++) | 579 (NLMEMVAQL; listed as Homo sapiens) [compound 579]
″++″ (≥20% = ++) | 580 (LLMENAERV; listed as Homo sapiens) [compound 580]
″+++″ (≥50% = +++) | 582 (TLCDVILMV; listed as Homo sapiens) [compound 582]
″+++″ (≥50% = +++) | 583 (ILANDGVLLAA; listed as Homo sapiens) [compound 583]
″+++″ (≥50% = +++) | 584 (ALAEVAAMENV; listed as Homo sapiens) [compound 584]
″++++″ (≥75% = ++++) | 585 (ALWDLAADKQTL; listed as Homo sapiens) [compound 585]
″+++″ (≥50% = +++) | 586 (KLKPGDLVGV; listed as Homo sapiens) [compound 586]
″+++″ (≥50% = +++) | 587 (VMNDRLYAI; listed as Homo sapiens) [compound 587]
″+++″ (≥50% = +++) | 588 (SLLPLSHLV; listed as Homo sapiens) [compound 588]
″+++″ (≥50% = +++) | 589 (KLYPQLPAEI; listed as Homo sapiens) [compound 589]
″++″ (≥20% = ++) | 590 (SLIEKLWQT; listed as Homo sapiens) [compound 590]
″+++″ (≥50% = +++) | 591 (SMAELDIKL; listed as Homo sapiens) [compound 591]
″+++″ (≥50% = +++) | 592 (RLLSAAENFL; listed as Homo sapiens) [compound 592]
″+++″ (≥50% = +++) | 593 (GLPRFGIEMV; listed as Homo sapiens) [compound 593]
″+++″ (≥50% = +++) | 594 (IMLKGDNITL; listed as Homo sapiens) [compound 594]
″+++″ (≥50% = +++) | 595 (VLLSIYPRV; listed as Homo sapiens) [compound 595]
″+++″ (≥50% = +++) | 596 (ALLDQTKTLAESAL; listed as Homo sapiens) [compound 596]
″+++″ (≥50% = +++) | 597 (KLLEGQVIQL; listed as Homo sapiens) [compound 597]
″+++″ (≥50% = +++) | 598 (FLFPHSVLV; listed as Homo sapiens) [compound 598]

Peptide exchange | Substance
″+++″ (≥50% = +++) | 599 (YLLNDASLISV; listed as Homo sapiens) [compound 599]
″+++″ (≥50% = +++) | 600 (ALAAPDIVPAL; listed as Homo sapiens) [compound 600]
″+++″ (≥50% = +++) | 601 (SAFPFPVTV; listed as Homo sapiens) [compound 601]
″++++″ (≥75% = ++++) | 602 (YLLEQIKLIEV; listed as Homo sapiens) [compound 602]
″+++″ (≥50% = +++) | 604 (SILDRDDIFV; listed as Homo sapiens) [compound 604]
″+++″ (≥50% = +++) | 605 (KLYEAVPQL; listed as Homo sapiens) [compound 605]
″+++″ (≥50% = +++) | 606 (ALWETEVYI; listed as Homo sapiens) [compound 606]
″+++″ (≥50% = +++) | 607 (RLYSGISGLEL; listed as Homo sapiens) [compound 607]
″+++″ (≥50% = +++) | 608 (SLLSVSHAL; listed as Homo sapiens) [compound 608]
″+++″ (≥50% = +++) | 609 (ALWKQLLEL; listed as Homo sapiens) [compound 609]
″+++″ (≥50% = +++) | 610 (LLAPTPYIIGV; listed as Homo sapiens) [compound 610]
″++++″ (≥75% = ++++) | 611 (YLLDDGTLVV; listed as Homo sapiens) [compound 611]
″+++″ (≥50% = +++) | 612 (YLYNEGLSV; listed as Homo sapiens) [compound 612]
″+++″ (≥50% = +++) | 613 (RLLPPGAVVAV; listed as Homo sapiens) [compound 613]
″+++″ (≥50% = +++) | 614 (LLLPDQPPYHL; listed as Homo sapiens) [compound 614]
″++″ (≥20% = ++) | 615 (VLPPDTDPA; listed as Homo sapiens) [compound 615]
″+++″ (≥50% = +++) | 616 (VLIDEVESL; listed as Homo sapiens) [compound 616]
″+++″ (≥50% = +++) | 617 (ALMYESEKVGV; listed as Homo sapiens) [compound 617]
″+++″ (≥50% = +++) | 618 (VLFDSESIGIYV; listed as Homo sapiens) [compound 618]
″+++″ (≥50% = +++) | 619 (ALQDRVPLA; listed as Homo sapiens) [compound 619]
